B1: human recombinant PDGF-BB (ligand, UniProt P01127 82-190, looked up)
chain: SLGSLTIAEPAMIAECKTRTEVFEISRRLIDRTNANFLVWPPCVEVQRCSGCCNNRNVQCRPTQVQLRPVQVRKIEIVRKKPIFKKATVTLEDHLACKCETVAAARPVT
notes: Platelet-derived growth factor subunit B, human; Homodimer of B chains by its name; source: bought: R&D Systems (Cat. #220-BB-050), human recombinant
B2: human recombinant PDGF-CC (ligand)
chain: VVDLNLLTEEVRLYSCTPRNFSVSIREELKRTDTIFWPGCLLVKRCGGNCACCLHNCNECQCVPSKVTKKYHEVLQLRPKTGVRGLHKSLTDVALEHHEECDCVCRGSTGG
modifications: disulfide-linked homodimer; limits not given, active growth factor domain after cleavage at Arg234 taken by convention
B3: human recombinant PDGF-CC (ligand, UniProt Q9NRA1 235-345, looked up)
chain: B2 chain
notes: Platelet-derived growth factor C, human; Homodimer by its name; source: bought: R&D Systems (Cat. #1687-CC-025), human recombinant

Tests used:
Conditions in all cases: both partners purified
human recombinant VEGFR2 = target: T1, human recombinant VEGFR2 (human, UniProt P35968 20-764); assay: SPR; BIAcore 3000, 25 °C, CM5 chip; receptor immobilised by amine coupling (~200-500 R.U.); ligand injected at 40, 20 and 10 nM in HBS-EP pH 7.4 (10 mM HEPES, 3 mM EDTA, 150 mM NaCl, 0.005% TWEEN-20); angiopoietin-4 reference cell subtracted; global 1:1 Langmuir fit; χ^2-to-Rmax < 1.0 taken as a true interaction
T1 construct: Vascular endothelial growth factor receptor 2 (KDR), human; source: bought: R&D Systems (Cat. #357-KD-050/CF), human recombinant
T1 sequence (P35968 20-764): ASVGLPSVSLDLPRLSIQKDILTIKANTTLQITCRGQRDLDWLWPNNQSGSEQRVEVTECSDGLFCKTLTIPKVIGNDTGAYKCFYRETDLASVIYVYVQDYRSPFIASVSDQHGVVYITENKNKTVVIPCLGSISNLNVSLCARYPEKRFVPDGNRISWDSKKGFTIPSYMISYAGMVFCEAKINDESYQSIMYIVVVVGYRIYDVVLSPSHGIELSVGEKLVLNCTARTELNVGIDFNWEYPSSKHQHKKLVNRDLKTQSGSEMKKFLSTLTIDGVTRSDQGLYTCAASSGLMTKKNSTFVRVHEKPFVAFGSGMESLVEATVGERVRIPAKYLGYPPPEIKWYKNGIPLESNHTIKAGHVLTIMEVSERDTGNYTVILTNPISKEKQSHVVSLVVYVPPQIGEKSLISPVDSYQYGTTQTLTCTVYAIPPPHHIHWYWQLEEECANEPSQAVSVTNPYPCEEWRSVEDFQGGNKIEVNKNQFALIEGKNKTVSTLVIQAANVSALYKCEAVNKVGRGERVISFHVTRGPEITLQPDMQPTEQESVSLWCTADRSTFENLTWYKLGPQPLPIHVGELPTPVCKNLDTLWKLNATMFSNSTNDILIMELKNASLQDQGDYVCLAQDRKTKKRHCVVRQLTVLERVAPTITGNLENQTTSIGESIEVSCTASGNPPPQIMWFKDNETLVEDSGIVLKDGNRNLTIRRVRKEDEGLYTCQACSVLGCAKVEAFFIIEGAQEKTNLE

human recombinant PDGFRα [1] = target: T2, human recombinant PDGFRα (human, UniProt P16234 24-528); assay: as above
T2 construct: Platelet-derived growth factor receptor alpha, human; also called PDGFRa; source: bought: R&D Systems (Cat #322-PR-050/CF), human recombinant
T2 sequence (P16234 24-528): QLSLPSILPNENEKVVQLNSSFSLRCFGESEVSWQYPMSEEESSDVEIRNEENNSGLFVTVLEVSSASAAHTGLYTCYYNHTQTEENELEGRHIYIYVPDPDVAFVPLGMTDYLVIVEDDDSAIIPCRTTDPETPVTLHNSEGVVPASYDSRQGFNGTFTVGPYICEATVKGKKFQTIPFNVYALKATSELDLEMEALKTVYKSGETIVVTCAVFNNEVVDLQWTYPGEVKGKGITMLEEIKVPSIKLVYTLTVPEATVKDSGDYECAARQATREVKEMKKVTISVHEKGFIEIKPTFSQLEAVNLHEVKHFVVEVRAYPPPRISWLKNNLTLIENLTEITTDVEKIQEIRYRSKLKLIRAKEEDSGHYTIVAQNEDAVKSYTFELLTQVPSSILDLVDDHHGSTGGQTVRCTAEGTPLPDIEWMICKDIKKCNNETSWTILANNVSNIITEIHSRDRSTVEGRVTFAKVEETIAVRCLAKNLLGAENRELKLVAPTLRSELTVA

human recombinant PDGFRα [2] = target: T3, human recombinant PDGFRα (human, UniProt P16234 24-1089); assay: SPR; BIAcore 3000, 25 °C, CM5 chip; receptor immobilised by amine coupling (~200-500 R.U.); ligand injected at 10, 20 and 40 nM, 30 uL/min, 10 min dissociation; HBS-EP pH 7.4 (10 mM HEPES, 3 mM EDTA, 150 mM NaCl, 0.005% TWEEN-20); angiopoietin-4 reference cell subtracted; global 1:1 Langmuir fit; χ2-to-Rmax > 1.0 or negative association curves taken as no true interaction
T3 construct: platelet-derived growth factor receptor alpha, human, recombinant; also called PDGFRa; source: bought: R&D Systems
T3 sequence (P16234 24-1089): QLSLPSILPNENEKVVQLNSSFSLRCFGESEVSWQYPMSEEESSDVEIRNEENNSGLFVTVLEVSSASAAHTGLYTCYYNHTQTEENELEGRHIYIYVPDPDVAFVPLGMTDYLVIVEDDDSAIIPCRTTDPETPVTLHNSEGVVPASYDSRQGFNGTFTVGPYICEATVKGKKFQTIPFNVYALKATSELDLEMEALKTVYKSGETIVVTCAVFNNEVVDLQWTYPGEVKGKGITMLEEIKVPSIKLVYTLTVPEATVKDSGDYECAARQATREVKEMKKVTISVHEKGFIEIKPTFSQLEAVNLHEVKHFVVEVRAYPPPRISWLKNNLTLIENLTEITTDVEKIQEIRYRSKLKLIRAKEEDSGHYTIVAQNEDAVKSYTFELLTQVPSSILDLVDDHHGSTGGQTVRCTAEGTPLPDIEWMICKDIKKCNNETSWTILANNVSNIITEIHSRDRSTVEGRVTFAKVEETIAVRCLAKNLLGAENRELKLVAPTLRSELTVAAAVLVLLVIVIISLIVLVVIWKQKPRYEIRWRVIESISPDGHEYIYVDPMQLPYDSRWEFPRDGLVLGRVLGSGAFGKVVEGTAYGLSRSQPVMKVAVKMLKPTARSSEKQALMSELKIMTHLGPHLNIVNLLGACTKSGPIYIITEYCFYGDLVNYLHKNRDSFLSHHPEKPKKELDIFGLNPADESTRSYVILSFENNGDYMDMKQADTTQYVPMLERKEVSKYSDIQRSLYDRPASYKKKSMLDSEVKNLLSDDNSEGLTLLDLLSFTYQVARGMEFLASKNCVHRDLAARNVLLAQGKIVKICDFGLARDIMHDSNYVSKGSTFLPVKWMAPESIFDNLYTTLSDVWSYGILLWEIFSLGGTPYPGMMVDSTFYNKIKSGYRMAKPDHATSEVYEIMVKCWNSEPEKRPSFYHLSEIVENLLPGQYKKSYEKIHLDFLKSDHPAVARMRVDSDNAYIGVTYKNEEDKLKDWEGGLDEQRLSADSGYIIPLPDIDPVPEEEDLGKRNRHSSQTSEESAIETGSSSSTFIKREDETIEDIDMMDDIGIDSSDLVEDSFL

human recombinant PDGFRβ = target: T4, human recombinant PDGFRβ (human, UniProt P09619 33-1106); assay: as above
T4 construct: platelet-derived growth factor receptor beta, human, recombinant; source: bought: R&D Systems
T4 sequence (P09619 33-1106): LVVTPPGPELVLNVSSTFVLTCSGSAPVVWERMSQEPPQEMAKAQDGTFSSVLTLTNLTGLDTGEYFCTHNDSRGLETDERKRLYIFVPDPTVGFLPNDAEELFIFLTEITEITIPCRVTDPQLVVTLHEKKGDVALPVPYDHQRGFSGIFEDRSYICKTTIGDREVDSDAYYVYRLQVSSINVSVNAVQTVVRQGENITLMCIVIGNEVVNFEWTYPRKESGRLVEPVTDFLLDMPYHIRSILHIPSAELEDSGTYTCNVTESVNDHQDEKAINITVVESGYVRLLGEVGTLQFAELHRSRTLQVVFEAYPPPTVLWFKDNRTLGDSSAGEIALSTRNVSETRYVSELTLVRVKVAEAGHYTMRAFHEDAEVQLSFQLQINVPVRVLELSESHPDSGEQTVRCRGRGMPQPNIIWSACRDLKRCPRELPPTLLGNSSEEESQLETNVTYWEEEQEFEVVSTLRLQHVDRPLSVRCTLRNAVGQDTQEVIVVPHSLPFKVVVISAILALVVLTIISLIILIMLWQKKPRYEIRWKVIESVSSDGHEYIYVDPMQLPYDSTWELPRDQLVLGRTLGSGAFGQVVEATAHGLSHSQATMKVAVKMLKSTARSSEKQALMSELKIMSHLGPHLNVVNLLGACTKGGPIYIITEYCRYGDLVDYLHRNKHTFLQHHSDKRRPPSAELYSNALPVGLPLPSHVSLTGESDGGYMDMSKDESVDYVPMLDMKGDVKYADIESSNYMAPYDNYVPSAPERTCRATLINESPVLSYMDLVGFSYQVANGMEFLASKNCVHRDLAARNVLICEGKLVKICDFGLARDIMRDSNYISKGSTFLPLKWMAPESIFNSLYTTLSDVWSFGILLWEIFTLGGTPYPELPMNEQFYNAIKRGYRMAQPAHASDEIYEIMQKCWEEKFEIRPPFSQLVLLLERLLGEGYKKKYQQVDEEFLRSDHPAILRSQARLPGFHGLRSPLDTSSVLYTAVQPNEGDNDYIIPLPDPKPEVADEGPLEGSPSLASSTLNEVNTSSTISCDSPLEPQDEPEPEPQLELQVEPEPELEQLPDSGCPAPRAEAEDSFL

Row | Binder | Kd (human recombinant VEGFR2) [nM] | Kd (human recombinant PDGFRα [1]) [nM] | koff (human recombinant PDGFRα [2]) [s⁻¹] | kon (human recombinant PDGFRα [2]) [M⁻¹ s⁻¹] | koff (human recombinant PDGFRβ) [s⁻¹] | kon (human recombinant PDGFRβ) [M⁻¹ s⁻¹]
1 | B1 | 37 | 420 |  |  |  | 
2 | B2 |  |  | 0.0002 | 5000 | 0.0014 | 740000
3 | B3 |  | 3.4 |  |  |  | 

Reference: publication PMC5704011, “Discovery of High-Affinity PDGF-VEGFR Interactions: Redefining RTK Dynamics” (Scientific Reports, 2017)
